Residue numbers refer to the chain shown, from its start.
B1: IgG 79D (antibody, V domains shown)
VH: EVQLVESGGGLVQPGGSLRLSCAASGFNISVYMMHWVRQAPGKGLEWVASIYPYSGYTYYADSVKGRFTISADTSKNTAYLQMNSLRAEDTAVYYCARYVYHALDYWGQGTLVTVSS
VL: DIQMTQSPSSLSASVGDRVTITCRASQRGLRNVAVAWYQQKPGKAPKLLIYSASSLYSGVPSRFSGSRSGTDFTLTISSLQPEDFATYYCQQWAVHSLITFGQGTKVEIKR
B2: Fab19 (Fab)
VH: B1 VH with V31S, M33S
light: DIQMTQSPSSLSASVGDRVTITCRASQSVSSAVAWYQQKPGKAPKLLIYSASSLYSGVPSRFSGSRSGTDFTLTISSLQPEDFATYYCQQWAVHSLITFGQGTKVEIKRTVAAPSVFIFPPSDSQLKSGTASVVCLLNNFYPREAKVQWKVDNALQSGNSQESVTEQDSKDSTYSLSSTLTLSKADYEKHKVYACEVTHQGLSSPVTKSFNRGECGGSDYKDDDDK
notes: Human synthetic Fab from phage library F, made in E. coli; Light chain carries a C-terminal Flag-tag; also called parental synthetic Fab; anti-D4 Fab
B3: Fab79D (Fab)
heavy: EVQLVESGGGLVQPGGSLRLSCAASGFNISVYMMHWVRQAPGKGLEWVASIYPYSGYTYYADSVKGRFTISADTSKNTAYLQMNSLRAEDTAVYYCARYVYHALDYWGQGTLVTVSSASTKGPSVFPLAPSSKSTSGGTAALGCLVKDYFPEPVTVSWNSGALTSGVHTFPAVLQSSGLYSLSSVVTVPSSSLGTQTYICNVNHKPSNTKVDKKVEPKSC
light: DIQMTQSPSSLSASVGDRVTITCRASQRGLRNVAVAWYQQKPGKAPKLLIYSASSLYSGVPSRFSGSRSGTDFTLTISSLQPEDFATYYCQQWAVHSLITFGQGTKVEIKRTVAAPSVFIFPPSDSQLKSGTASVVCLLNNFYPREAKVQWKVDNALQSGNSQESVTEQDSKDSTYSLSSTLTLSKADYEKHKVYACEVTHQGLSSPVTKSFNRGECGGSDYKDDDDK
notes: Made in E. coli; also called last generation Fab; KIT79D (Fab)

How the values were obtained:
[1] = target: Wild type KIT expressed on cells (UniProt P10721 26-976, limits assumed); test: cell-based or functional assay
[2] = target: T1, Soluble KITD4-5 fragment (amino acids 308-514) (human, UniProt P10721 308-514, glycosylated Asn320 (partial deglycosylation with endoglycosidase F1)); test: SPR (Biacore T100, 25 C), KITD4-5 amine-coupled to a CM5 chip, Fab as analyte 0.12-10 nM, 1:1 Langmuir fit
T1 construct: range 308-514; Expressed in Sf9 insect cells with an N-terminal His-tag and a TEV site; also called KITm-5; KITm-s

[3] = target: T1, Soluble KITD4-5 fragment (amino acids …); test: SPR (Biacore T100, 25 C), KITD4-5 amine-coupled to a CM5 chip, Fab as analyte, long dissociation time, 1:1 Langmuir fit

Row | Binder | concentration at which KIT autophosphorylation was inhibited (NIH-3T3 cells expressing wt KIT, SCF stimulation) [1] [nM] | Kd [2] [nM] | Kd [3] [nM]
1 | B1 | 1 | – | –
2 | B2 | 50 | 0.63 | –
3 | B3 | – | – | 0.0064

Source: patent publication WO2015050959A1 (dated 2015)
